IntAct's records for PubMed 24970085

B1: Lysosome-associated membrane glycoprotein 1 (Homo sapiens), P11279 (parent)
chain: MAAPGSARRPLLLLLLLLLLGLMHCASAAMFMVKNGNGTACIMANFSAAFSVNYDTKSGPKNMTFDLPSDATVVLNRSSCGKENTSDPSLVIAFGRGHTLTLNFTRNATRYSVQLMSFVYNLSDTHLFPNASSKEIKTVESITDIRADIDKKYRCVSGTQVHMNNVTVTLHDATIQAYLSNSSFSRGETRCEQDRPSPTTAPPAPPSPSPSPVPKSPSVDKYNVSGTNGTCLLASMGLQLNLTYERKDNTTVTRLLNINPNKTSASGSCGAHLVTLELHSEGTTVLLFQFGMNASSSRFFLQGIQLNTILPDARDPAFKAANGSLRALQATVGNSYKCNAEEHVRVTKAFSVNIFKVWVQAFKVEGGQFGSVEECLLDENSMLIPIAVGGALAGLVLIVLIAYLVGRKRSHAGYQTI

Variants of: B1
Conditions: with glyc_lassj GPC

Variant | effect of a mutation on the interaction
MAAPGSARRPLLLLLLLLLLGLMHCASAAMFMVKNGNGTACIMANFSAAFSVNYDTKSGPKNMTFDLPSDATVVLSRSSCGKENTSDPSLVIAFGRGHTLTLNFTRNATRYSVQLMSFVYNLSDTHLFPNASSKEIKTVESITDIRADIDKKYRCVSGTQVHMNNVTVTLHDATIQAYLSNSSFSRGETRCEQDRPSPTTAPPAPPSPSPSPVPKSPSVDKYNVSGTNGTCLLASMGLQLNLTYERKDNTTVTRLLNINPNKTSASGSCGAHLVTLELHSEGTTVLLFQFGMNASSSRFFLQGIQLNTILPDARDPAFKAANGSLRALQATVGNSYKCNAEEHVRVTKAFSVNIFKVWVQAFKVEGGQFGSVEECLLDENSMLIPIAVGGALAGLVLIVLIAYLVGRKRSHAGYQTI [N76S] | disrupting interaction
